In patent publication US20130177579A1 (BIOALLIANCE C V, published 2013):

Experiments:
[1] = molecular target: T1, human transferrin receptor expressed by normal human cells (RBC, PMN, lymphocytes, monocytes, platelets, … (human, UniProt P02786 1-760)); assay: FACS, PMN, donor D014, 1/10x
T1 construct: The assay is whole-cell FACS on normal donor cells; also called TfR on normal cells
Protocol: (§1) Preparation of PBMC and PMN: The whole blood was diluted with an equal volume of PBS and mixed with 1/10 volume of 15% Dextran solution. […] After centrifugation at 2200 rpm for 15 min (rotor: SORVALL, PN11788 and centrifuge: SORVALL, RT7), PBMC concentrated in the interface, were collected and washed with large volumes of FACS buffer (2% FBS in PBS) for future use. The PMN-rich pellet was collected, from which residual RBC was removed by hypotonic lysis in 0.2% NaCl.
(§2) 1×10⁵ cells were seeded in each well of a v-bottomed 96-well plate and incubated with 50 μl of hybridoma culture supernatant at 1× and 10× dilution, or isotype control antibody mouse IgM, κ (BD™, Cat. No. 557275) at concentration of 1 μg/ml. A 300× dilution of human cell hyper-immune serum was used as binding positive control for all cell types. PE-conjugated anti-human CD41a (Southern Biotech™, Cat. No. 9391-09) was used as a positive control for staining human platelets. Anti-sialyl Lewis x antibody (Millipore™, Cat. No. MAB2096) was used as a positive control for staining human PMN. Anti-human CD31 (Hycult™, Cat. No. HM2039) was used as a positive control for staining HUVEC. After 30 minutes incubation at 4° C., cells were washed twice with 200 μl FACS buffer (1×PBS containing 1% FBS), stained with 50 μl of 1 μg/ml goat F(ab′)2-anti-mouse IgG(H+L)-PE (Southern Biotech™, Cat. No. 1032-09) or 1 μg/ml goat F(ab′)2-anti-mouse IgM(H+L)-PE (Southern Biotech™, Cat. No. 1022-09) in FACS buffer. After 30 minutes of incubation at 4° C., cells were washed twice with FACS buffer and analyzed by flow cytometry (BD LSR, BD Life Sciences).

[2] = molecular target: human transferrin receptor expressed by nonhematopoietic cancer cells (human) (UniProt P02786); assay: FACS, WiDr cells, 1/5X
[3] = molecular target: T1, human transferrin receptor expressed by …; assay: FACS, monocytes, donor D014, 1x
Protocol: (§3) The hyper-immuned serum (Hyp-serum) or the corresponding cell marker antibodies for certain cell types were included as positive controls.
as §2

[4] = molecular target: human transferrin receptor expressed by nonhematopoietic cancer cells (human) (UniProt P02786); assay: FACS, SNU-16 cells, 1/5X
[5] = molecular target: T1, human transferrin receptor expressed by …; assay: FACS, RBC, donor D005, 1x
Protocol: as §3, §2

[6] = molecular target: T1, human transferrin receptor expressed by …; assay: FACS, lymphocytes, donor D014, 1/10x
Protocol: as §1, §2

[7] = molecular target: T2, human transferrin receptor expressed by Jurkat cells (human, UniProt P02786 1-760); assay: FACS, Jurkat cells, 1/10X
T2 construct: Endogenous receptor on Jurkat cells; MEM189 was the positive control; also called TfR on T leukemia cell line Jurkat

[8] = molecular target: T1, human transferrin receptor expressed by …; assay: FACS, platelets, donor D016, 1/10x
Protocol: as §3, §2

[9] = molecular target: T1, human transferrin receptor expressed by …; assay: FACS, RBC, donor D016, 1x
Protocol: as §3, §2

[10] = molecular target: T1, human transferrin receptor expressed by …; assay: FACS, monocytes, donor D016, 1/10x
Protocol: as §3, §2

[11] = molecular target: T1, human transferrin receptor expressed by …; assay: FACS, platelets, donor D102, 1/10x
Protocol: as §3, §2

[12] = molecular target: T1, human transferrin receptor expressed by …; assay: FACS, HUVEC, 1x
Protocol: as §3, §2

[13] = molecular target: T1, human transferrin receptor expressed by …; assay: FACS, PMN, donor D014, 1x
Protocol: as §3, §2

[14] = molecular target: T1, human transferrin receptor expressed by …; assay: FACS, lymphocytes, donor D102, 1/10x
Protocol: as §1, §2

[15] = molecular target: T1, human transferrin receptor expressed by …; assay: FACS, RBC, donor D102, 1x
Protocol: as §3, §2

[16] = molecular target: human transferrin receptor expressed by nonhematopoietic cancer cells (human) (UniProt P02786); assay: FACS, COLO205 cells, 1/5X
[17] = molecular target: T1, human transferrin receptor expressed by …; assay: FACS, monocytes, donor D102, 1/10x
Protocol: as §3, §2

[18] = molecular target: human transferrin receptor expressed by nonhematopoietic cancer cells (human) (UniProt P02786); assay: FACS, DU145 cells, 1/5X
[19] = molecular target: human transferrin receptor expressed by nonhematopoietic cancer cells (human) (UniProt P02786); assay: FACS, DLD-1 cells, 1X
[20] = molecular target: human transferrin receptor expressed by nonhematopoietic cancer cells (human) (UniProt P02786); assay: FACS, KLE cells, 1X
[21] = molecular target: human transferrin receptor expressed by nonhematopoietic cancer cells (human) (UniProt P02786); assay: FACS, HEC-1-A cells, 1X
[22] = molecular target: human transferrin receptor expressed by nonhematopoietic cancer cells (human) (UniProt P02786); assay: FACS, SU.86.86 cells, 1X

T1 sequence (P02786 whole entry G142S): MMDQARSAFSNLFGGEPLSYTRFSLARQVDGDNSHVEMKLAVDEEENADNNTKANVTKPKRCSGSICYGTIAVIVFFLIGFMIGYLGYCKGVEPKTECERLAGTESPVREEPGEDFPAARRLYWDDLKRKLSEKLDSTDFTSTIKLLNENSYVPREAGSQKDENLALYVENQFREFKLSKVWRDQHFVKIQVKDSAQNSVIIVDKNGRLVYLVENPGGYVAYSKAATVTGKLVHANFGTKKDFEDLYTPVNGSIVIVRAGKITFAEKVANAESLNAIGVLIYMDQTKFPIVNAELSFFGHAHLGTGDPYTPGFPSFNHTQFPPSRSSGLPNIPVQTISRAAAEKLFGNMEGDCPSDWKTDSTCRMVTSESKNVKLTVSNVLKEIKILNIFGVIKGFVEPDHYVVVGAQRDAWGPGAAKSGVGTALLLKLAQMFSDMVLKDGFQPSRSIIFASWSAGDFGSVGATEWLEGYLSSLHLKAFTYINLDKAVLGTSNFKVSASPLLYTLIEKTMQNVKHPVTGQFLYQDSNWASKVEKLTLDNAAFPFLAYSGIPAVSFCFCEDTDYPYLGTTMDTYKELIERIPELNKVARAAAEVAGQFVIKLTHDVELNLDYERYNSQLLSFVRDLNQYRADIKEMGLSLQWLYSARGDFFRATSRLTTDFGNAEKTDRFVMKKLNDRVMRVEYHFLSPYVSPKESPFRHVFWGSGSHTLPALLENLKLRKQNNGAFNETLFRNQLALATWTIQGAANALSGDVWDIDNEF
human transferrin receptor expressed by nonhematopoietic cancer cells (human), sequence (P02786 whole entry G142S): as above
T2 sequence (P02786 whole entry G142S): as above

Row | % positive cell binding [1] | MFI [2] | % positive cell binding [3] | MFI [4] | % positive cell binding [5] | % positive cell binding [6] | % of gated cells [7] | % positive cell binding [8] | % positive cell binding [9] | % positive cell binding [10] | % positive cell binding [11] | % positive cell binding [12] | % positive cell binding [13] | % positive cell binding [14] | % positive cell binding [15] | MFI [16] | % positive cell binding [17] | MFI [18] | MFI [19] | MFI [20] | Binder | other results
1 | < 1% | 2460 MFI | < 1% | 5100 MFI | < 1% | 1% | < 1% | < 1% | 1% | 1% | < 1% | 1% | 1% | 2% | < 1% | 6340 MFI | 4% | 13 MFI |  |  | antibody 122-72 (antibody, V domains shown, Mouse IgM, kappa from a hybridoma; tested as hybridoma culture supernatant; Antibody 60-43 is said to have the same CDRs) VH: EVQLVESGGGLVQPKGSLKLSCAASGFTFNTYAMNWVRQAPGKGLEWVARIRSKSNNYATYYADSVKDRFTISRDDSQSMLYLQMNNLKTEDTAMYYCVAYGSRNYWGQGTTLTVSS VL: DIVMTQSPSSLTVTAGEKVTMSCKSSQSLLNSGNQKNYLTWYQQKPGQPPKLLIYWASTRESGVPDRFTGSGSGTDFTLTISSVQAEDLAVYYCQNDYSYPYTFGGGTKLEIKR | 
2 | < 1% |  | < 1% |  | < 1% | 1% | < 1% | < 1% | 1% | < 1% | < 1% | 2% | < 1% | 1% | < 1% |  | 1% | 2280 MFI | 219 MFI | 136 MFI | antibody 55-31 (antibody, mouse IgM, V domains shown, Mouse IgM, kappa from a hybridoma; tested as hybridoma culture supernatant) VH: QVQLQQPGAELVKPGTSVKLSCKASGYNFTSYWINWVKLRPGQGLEWIGDIYPGSGSTNYNEKFKSKATLTVDTSSSTAYMQLSSLASEDSALYYCARSAYRYDWFAYWGQGTLVTVSA VL: DIQMTQSPASLSVSVGETVTITCRASENIYSNLAWYQQKQGKSPQLLVYAATNLADGVPSRFSGSGSGTQYSLKINSLQSEDFGSYYCQHFWGTPYTFGGGTKLEIKR | MFI [21]: 1490 MFI; MFI [22]: 154 MFI
3 | < 1% | 1080 MFI | < 1% | 3970 MFI | < 1% | 1% | < 1% | < 1% | 1% | < 1% | < 1% | 1% | < 1% | 2% | < 1% | 6160 MFI | 2% |  | 3760 MFI | 890 MFI | antibody 6-90 (antibody, mouse IgM, V domains shown, Mouse IgM, kappa from a hybridoma; tested as hybridoma culture supernatant) VH: EVELQQFGIEMVKPGASVKISCKASGYIFTDYHMDWVRQSHGKSLEWIGDIDPKYDRVTYNQKFKGKASLTADKSSSTAYMELRSLTSEDTAVYYCAKTGAYGDYLAYWGQGTLVTVSA VL: DLVMTQTPLSLPVSLGDQASISCRSSQSLVHSDGNTYFYWYLQKPGQSPKLLIYKVSNRFSGVPDRFSAGGSGTYFTLKISRVEAEDLGVYFCSQTTHFPPTFGGGTKLEIKR | MFI [21]: 57 MFI; MFI [22]: 3950 MFI
